# According to the DeepSol protein solubility set:
# Experiment: soluble on expression in E. coli; label from the status in PepcDB or PDB records
row,Sequence,soluble on expression in E. coli
1,MALAGAEVVVKMTPKSVAHVFKKEMSSLHTSLLHLKPSPFQATYLGLEMTIDHLQVVDFKMPKLSYETSASQSHMTFKLLGGSARLLGQYSAVYKTKREGQFEMIFEHFHMSVPVKRTALTKFTVASDECTLEVDESMITMSPVLPEQISAKIKSDLLDQLKEAACSNATQFFSKLNSHLIHFAEATDISQGGHPSHIDVELHFQNPTSEDDTAIHVDVTESVVNAELSKLYSSANTRFIWNDVPEIKELLKSCKTTECRFIEDGDIVSSFFDRPSIRIQSDNTVSLRLPLSTSLTTTNGKELFRIQTEVELNLEDIVLEHPENGEVFWSAKFHIKNIRILQTSSSRNFQKFATRMESWIEEHKLFMENLLNTYIQGSLPVHLRSPLAWTHRVHARPIFSTSSLSFHVHPHFSPSLRVLV,not soluble
2,NHYLQAEVVTAFLGLQHAAKRADFNLQPASTYRDFNRQMLIWNAKFNGKRKIHNDASKQIDITTLTDLAKIKAILRWSAVPGASRHHWGTEIDIFDPDLLPQGQHLQLEPWEYQSNGYFAPLIKWLHQHSASFGFYFPFDGIQNSQ,not soluble
3,MGHHHHHHSHMEQFEVIKQQKEIIEHGIELFNKKPKRGIQFLQEQGMLGTSVEDIAQFLHQEERLDSTQVGDFLGDSARFNKEVMYAYVDQLDFCEKEFVSALRTFLEGFRLPGEAQKIDRLMEKFAARYIECNQGQTLFASADTAYVLAYSIIMLTTDLHSPQVKNKMTKEQYIKMNRGINDSKDLPEEYLSSIYEEIEGKKIAMKETKELT,soluble
4,MGYRNLPPHLNPLAPLALDDPPGWLTSFKLRRLTADQCASLLAEANRRRLIASRPVADSEGSCPLRNVVRVANFGSVQLSSSFLASCPLALSSALYIEQQAKPLTRQLMASDLRQIDHLGSFACRNIYHRQQARRSEHATADALDVSGFRLADGRRVSVLQGWRSETSRPWLAALLSSSCHYFGNALGPEYNAAHANHFHFGMRGQGFCFLEHHHHHH,not soluble
5,GPGSMAHCCFLIYPLAKVADESFLQLLFDDSVKRSAFLGYPPRRFAIVELEESQNEAVLRAIGARDDDGRVEAREDNADTPFVDLFTRTGAKKGTDRNEPIGLRMGCIPHLSQVRFRRTYLRVIVSPVTIDELFGCVQKDSNHVKKEKRSLKRSRHTDEDAGPWVPRWPVANGDPTLAGRVEVVSMTGASRAGLSGDPEDERYREPYAECSGGPVCNMSPPKTFLSDDSAGDAAGRRALDVSVQNLIRELGFDK,not soluble
6,MRGNLKLFELKSGRGEKLMKNILIISSSPRKKGNSQILCEQFKKGAEAKGHQVKIVRIMEQNIGFCRACDGCMRNGGTCVLKDDMAEILKMFQKADVLVLATPVYFYGISAQMKTFIDRTYPIWQHLGKKEVYYIISAGLGEDIIERSLGDLNGFVEHLEEYKISGKIYAANVMDAGLVKNQSVFQKAYDMGYAI,not soluble
7,MEGLLIHAVLRELEKELPAQNLGLAFPEEGTAAILLKGRTGRLFNLVLHYRPPTPSLALEPGRLQGEPKTPFQRQLQARVKGPLVEASQLKLDRVAFFRFAGEKGFVDAPPSVLVLEATGRNANLLLLDEEGRILGVDRVITKEVNRYRELRPGLPYTPPPPYRKLDPRTLAEEDLLPLLGKPLKEVIRHVDGVGQELLRELARRAGLTPETPLDEAGLGRVYRALKTLVEDPSLRTELSEELRRRWAEEEKEALRKPLLEALDREIRTLKARLGDYQEALERLEEAEALRRRADLLLARLKEVPKGAEKVVLEGFDGKPVEIPLDPALSPQENARKLYDRARRLEELAEKALDLIPKTEARIRELEAEKERLRTLDLEGLLALAQRPKGEKGLKVGLRYTSPSGFLVLVGRNAKENDLLTRAAHSEDLWFHAQGVPGSHVILKTEGKNPPLEDLLFAARLAAYHSKARGERQVPVDYTRKKHVWRPRKAAPGQVLYTQAKTLFVEGLLPEPREEA,soluble
8,MGSDKIHHHHHHMTNIAILGTASDVGKSIVATALCRIFSNAGVDVAPYKAQNMSNNSGVTPDGFEMGRAQIVQAQAARVAPHADMNPVLLKPNTDTGAQVVLQGKVCADKSAREYFGDTQRWAEAAFESLDRLMVRHELLVIEGAGSCAEMNLYQRDFVNFKTARRAGAAVILVADIDRGGVFAQVVGTLAVIPPEDRALVKGVIINRFRGDKSLFEGGVKMLESMTGVPVLGVIPYFRGFTIDAEDAVPLSSVVDPKQEPSGDKIGVAAIYFPHISNFTDLAPLERDPSVELHYLHRPKSLDGYKALILPGSKNVRGDLAWLETMGWRDEIEKFRKRGGIIVGLCGGYQMLGASIADPYGVEGAPGASAGLAMLPVETVLEREKALCNSVGKIAGTPFFVSGYEIHMGRTALEPGASPLLEVTERNGVATDDFDGAKSADGQVTGTYFHGFFDRPEVRTWFLRLLDGGYESPRGASVADPFELLAKHFSENLDLEKLFAIAGLSVKGEKES,not soluble
9,MLFDMLHSFHESRVIKSHHNLTQQPVSTFLLMGLDNSGKRKLSTTRTDGMMVVIVNHKTKTMTLCSLLRDTFVKIHSQQYHGYQRIESAYTYGGDAAAIATVEHYLNLPIDYYLTVNWDGFIRAIDDIGPVEVNVDRDFIGQDYWGKPEKFKAGLQSMSGARALAYARERHIDNDQHRGFRQQAVFYAMVKRLNQEGLSSKGAKVVGDLKDQMRTNLTNHDMLTLFKSRKTFKRYRVKRLTFQWRTFDVAGRSMVEVYPDSRVQVSRQLQAAAGLRPDLPSQTFTTNGHYRYASDESVESKADEAKADTHYGQSHVYVGHAGNTTIGKLPAAVPLKNGFRVSDRTETMYTVHLEHHHHHH,soluble
10,MKNASVITVGNEILKGRTVNTNAAFIGNFLTYHGYQVRRGFVVMDDLDEIGWAFRVALEVSDLVVSSGGLGPTFDDMTVEGFAKCIGQDLRIDEDALAMIKKKYGQADLTPQRLKMAKIPPSCRPIENPVGTAPGLICAVGGKKVIILPGVPKEMEALLKAMEKDIIIPDTHYYDDSVIIADVMESAFAPYVDRIMKEFDGIYVKSHPRNVEVKNPELEIEISGFGEDEAALRKKIEDAIARAGEYAVKLGGSVKR,not soluble
11,MGSDKIHHHHHHMVLLILKFHGESVKIKPECAICIIRQVVDAANEITDDEREQFRLIKSTMEVIKDVYGESAVPAWMGTVVHRYLKKISNNNDPYKNLKEKANKIALQYLDKVREMSNTDDELERLRKKVLATIAGNVIDFGAYSTGINIEKLIEDTLNGELKIDNSRKLLNDLKDKNIKKILYICDNAGEIIFDRVLMEEIKKYDKDIVAVVKGKPILNDATLEDAKIAKIDEIAKVITTGSDIIGIILEECSEEFLKEFESADLIIAKGMGNYESLTEYEDKIDKPIYYILKAKCKPVAENIGVDVGDNVLLKR,not soluble
12,MSSDVRFTDFKSDKQPTWCPGCGDFGTMNGMMKALAETGNDPDNTFIVAGIGCSGKIGTYMHSYALHGVHGRALPVGIGVKMANPDLEVMVSGGDGDGYSIGAGHFIHAVRRNVDMSYVVMDNRIYGLTKGQASPTSREDFETSTSPDGPNQPPVNPKALALASGATFIAQSFSSNAQRHAEIVQKAVEHDGFGFVNVYSPCVTFNDVDTYDYFRDAIVDLDETDHDPADRDQAKDKILESEKEYMGVLYQDEDSVPFEEREGVEGSMAEIPDGAPEGAMDLVREFY,not soluble
13,MAEAGIAHTALPLEAIPEKSAGKGEGLTLIIYMLELALHAIPENLKKTVYSKVELMAPRSDGVLLFYGLCGNVLGKIEEDFRALDCRVSILKEENGEIVDDCIGAVLGGRGHYLEALKSCRGAGTFFLTPMWAVNWREMIRTAGLSRNPDDIEMSKFVFDYAGYKRVARVNTGLAYEKDFDARVKEFSTLFEFEVTDLEGTLQLVENCYAKTKASMLEACPHSQTLEHHHHHH,not soluble
14,MSLDRRAQQRLALGEFLRARRRAAVRAELGLPDMPRSRTSGLRREEVAVQAGVSVTWYTWLEQGRDINPSRQVLDAIARALRLSPSEHDYVLALGGYTVDHAVTAGPPPPQIQRFLDALGGHPAFAITSDWGIAAWNTAYAALYPNIERVPPPDRNLLWLVFMDPAIRELLPDWDADSRRFLAEFRADAGPMVGEPSYTALVSRLSSESPHFATAWRAADIERFTSRERLFRHPVVGELRLEHHQVAPVDVPDIQIVAYLPEPGSVAAERLRRLVGQAGDTAREGHHHHHH,soluble
15,MQSQWCARQQDMIAVYGALAEQCDYALHLGLTEAGMGSKGIVASTAALAVLLFKGIGDTIRVSLTPEPGGDRAREVIVAQEILQTMGLRAFVPLVAACPGCGRTTSTYFQELAESIQIYVREQMVIWREQYEGVENMSLAVMGCVVNGPGESKHADIGISLPGSGETPVAPVFVDGQKTVTLKGDNIAGEFRMIVDEYVRTKYRKKAANALEHHHHHH,not soluble
16,MSLHLNVAQQLYNAEITAGSLLLKESRAIAQLLLQSADETAWRQAIAIDNILQKTSPASAKRMSSLIRKRLELMPRELWSMIADGTTEVAIQSLMAAAIKHSRLLGDFMLKVLQRHYREFNPKILSREWDSFLAECAHIDPAVASWSQSTRKKVGQVAYRILSEAGYLDNTRSLKLQPVLIAPEVSKFLNSHDEKYILKCMEIAHEEGHHHHHH,soluble
17,SYPYLMLSGHQYPQMAYYRGTLKKPNQYFGPYPNSNAVRDSIQVLQKVFMLRTCEDSVFEHRDRPCLLYQIKRCTAPCVGHISEEDYRDSVREAATFLNGKTDELTRTLQHKMQTAAANLQFEEAARYRDQIQALGIMQSNQFIDSKNPNNPNDIDLLALAVSDGLVCVHWVSIRGGRHVGDKSFFPDTKNDPEPNGQDYAEAFVAQHYLGKSKPDIIISNFPVPDALKEALEGEHGKQMQFVTKTIGERKVRLKMAEQNAQMAIAQRRLQQSSQQHRIDELAKILGMDSDGLNRLECFDISHTQGEATIASCVVYDEQNIQPSQYRRYNITTAKPGDDYAAMREVLTRRYGKMQEAEANGETVKWPDAVLIDGGKGQIGVAVSVWEELGLHIPLVGIAKGPERKAGMEELILPFTGEVFRLPPNSPALHLLQTVRDESHRFAITGHRKKRDK,not soluble
18,LLVDKKVSVNDVDIGLISLQYLNIIANYTNKKAIEKITDYLVITSKILAKKADNLLNDHQEESVLEYDLATNNFRDKMIANLVEHKRYCDSLGEFEKLRVNRLAYFSKANEMEQFIKTANDQLVTVEDQLPNYISVLKLFHAMNKLLEMRLSSLLTNKNITIKELSVEQVQKELVLAIKQFNYQTVSLKRVLLKLN,not soluble
19,MSKLSIRNLTKIFGPHPEKALGLLEQGLGKEEIHRRTSHAVGVDRASFDVEEGEIVVVMGLSGSGKSTLVRCLNRLIEPTAGTVTVDGRDVTSMPVDELRRLRQRSFGMVFQNFALFPHRTVLQNAAFGLEAMGVPRAERERQAMVSLERVGLAEWAASRPAQLSGGMQQRVGLARALSLDPDILLMDEAFSALDPLIRRDMQDELLRLQDDLQKTIVFISHDLDEALKLGDRIVLMRDGAVVQIGTPEDILTNPADDYVARFVGEADVTKVLTAGSVMKRSEAVAVLGIDGPRTALRKMRRNAIATLFVLDERHRLVGLITADDAARLAAEGVRELGSIVRRDIATVPPEAPATELISLMADLPHPLAVVDERGRLAGVIVRGLLLGALAERGGVALEHHHHHH,not soluble
20,MSLAHLAAMFDDLVARFGDRPAIVDDRALSYRELDLLVRKIAVSLAALGIGKGDRVALFLGNCWEFLAVTLACNRLGVLVVPIGIRQRRAELEFLLNNSGAKVVVFEAELTDEIPAAAEVPQLAHRFVAHGTAEGARPFEDLLAAEPANAPLAEMHEDDTAVILYTSGTTGKPKGAELTHLSILHSSYAFARAHELTERDRGLVAVPLSHVTGLVGVSYATIAAGGCVVLMRQAFKTVDFLALAARERITYSILVPAIYTLAVMHPEFDKHDLSAWRIGCFGGAPMPVPTIEMLAKRLPNLQLRNAYGATETTSPTTIMPQAYWRDHMDSVGQAVPYAHVRVLDADDNEVAPGEPGELLIAGPMVVPRYWQRPDANAKEFVNGYWRSGDIGSIDQDGFVRVFDRKKDMINRGGFKIFSAEVENVICGIDGVLETAIIGTPDPVLGERVNAIVVTSEGASLSERDVAAYCAARMSDYKVPESIIIRSEPLPRNANGKIQKTVLRETIADRAASYAREGHHHHHH,not soluble
